Results from paper PMC6383938 (PLoS Biology, 2019).
Changes are numbered by the printed parent chain. Names and notes keep the numbering of the source. Each block holds one molecule with its values, some of them ahead of it.

Columns and labels:
[1] = molecular target: human copper chaperone for SOD1 domain II–III construct (human); assay: SEC-MALS; SEC and light scattering–derived molecular weights of hCCS truncations at micromolar concentration
[2] = molecular target: the molecule itself; assay: SEC; size exclusion chromatograms of hCCS alone (wild type and Ala231Gly); relative amounts of dimeric and monomeric species
[3] = molecular target: human superoxide dismutase-1 as used in the SEC complexation assays (variant not stated) (human) (UniProt P00441); assay: SEC; complexation of hCCS dimer interface variants with hSOD1 followed over a time course from 8 minutes to 4 days; Agilent BioSec Advance 300 Å 4.6 × 300 mm column; heterodimer peak height plotted

- stoichiometry N [1]: 2
Molecule: human copper chaperone for SOD1 domain II–III construct (domain or fragment)

- fold slower complexation than with wild-type hCCS [3]: > 300 fold
B1: human copper chaperone for SOD1 Ala231Gly (natural protein, UniProt O14618 1-274, looked up)
chain: MASDSGNQGTLCTLEFAVQMTCQSCVDAVRKSLQGVAGVQDVEVHLEDQMVLVHTTLPSQEVQALLEGTGRQAVLKGMGSGQLQNLGAAVAILGGPGTVQGVVRFLQLTPERCLIEGTIDGLEPGLHGLHVHQYGDLTNNCNSCGNHFNPDGASHGGPQDSDRHRGDLGNVRADADGRAIFRMEDEQLKVWDVIGRSLIIDEGEDDLGRGGHPLSKITGNSGERLACGIIGRSAGLFQNPKQICSCDGLTIWEERGRPIAGKGRKESAQPPAHL
notes: also called Ala231Gly hCCS; A231G hCCS; source: expressed and purified as previously described [29,35,42]
- binding result [2]: binds

B2: wild-type human copper chaperone for SOD1 (natural protein, UniProt O14618 1-274, looked up)
chain: B1 chain with G231A
notes: human copper chaperone for SOD1 (hCCS), wild type; also called hCCS; wild-type hCCS; source: expressed and purified as previously described [29,35,42]
- binding result [2]: binds
